This passage reports Kd, koff and kon results from US20170306005A1 (NASCIENT, published 2017).

The target of assay [1] is T1, mouse tenascin-C rCd4-His-FBG (rat; mouse, UniProt P05540 207-392, limits assumed).
T1 construct: domain: domains 3 and 4; C-terminal FBG fusion; biotinylated in the ELISA screen; also called Mu TNC; mouse TNC rCd4-His-FBG; not shown: 6His tag
T1 sequence (chain (part 1 of 2)): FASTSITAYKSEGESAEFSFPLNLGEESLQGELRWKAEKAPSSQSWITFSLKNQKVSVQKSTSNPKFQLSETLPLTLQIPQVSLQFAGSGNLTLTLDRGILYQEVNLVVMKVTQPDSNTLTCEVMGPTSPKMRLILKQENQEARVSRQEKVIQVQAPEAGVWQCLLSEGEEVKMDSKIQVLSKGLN
T1 sequence (chain (part 2 of 2)): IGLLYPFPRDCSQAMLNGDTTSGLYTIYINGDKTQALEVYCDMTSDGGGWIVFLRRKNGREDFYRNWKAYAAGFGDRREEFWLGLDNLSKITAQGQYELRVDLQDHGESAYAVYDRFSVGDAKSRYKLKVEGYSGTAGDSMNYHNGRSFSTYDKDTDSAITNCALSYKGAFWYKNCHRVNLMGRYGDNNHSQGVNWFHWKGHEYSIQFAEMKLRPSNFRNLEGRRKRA
Kind of assay: SPR, captured purified IgG4, 37 C. The method, then:
(§1) Detailed kinetic parameters were evaluated for the 9 prioritised IgG4 antibodies. Binding characteristics were determined for interaction with human, rat and dog TNC rCD4-His-FBG, and human TNR rCD4-His-FBG. Kinetic assays followed essentially the same protocols as for the off-rate determinations described above, with some modifications as follows. […] Purified anti-FBG IgG4 was diluted to a concentration of 3.5 nM in PBS, pH 7.4, 0.05% Tween-20 and injected into FC2 at a flow rate of 10 μl/min, 60 s contact time. […] Antigens were prepared by doubling dilution in PBS, pH 7.4, 0.05% Tween-20 (highest concentration 100 nM except mouse rCD4-His-FBG which was 7 nM). Assays were performed at 37° C. (30 μl/min, 120 s contact time; mouse rCD4-His-FBGFBG 10 μl/min, 60 s contact time), with both the flow cell and injection chamber equilibrated to this temperature. As before, kinetic parameters were determined by reference cell subtraction and fitting the sensogram experimental data assuming a 1:1 interaction using BIAevaluation software (GE, BR-1005-97).

Assay [2] deals with T2, human tenascin-C rCd4-His-FBG (rat; human, UniProt P05540 207-392, limits assumed).
T2 construct: domain: domains 3 and 4; C-terminal FBG fusion; biotinylated in the ELISA and HTRF screens; also called Hu TNC; human TNC rCd4-His-FBG; not shown: 6His tag
T2 sequence (chain (part 1 of 2)): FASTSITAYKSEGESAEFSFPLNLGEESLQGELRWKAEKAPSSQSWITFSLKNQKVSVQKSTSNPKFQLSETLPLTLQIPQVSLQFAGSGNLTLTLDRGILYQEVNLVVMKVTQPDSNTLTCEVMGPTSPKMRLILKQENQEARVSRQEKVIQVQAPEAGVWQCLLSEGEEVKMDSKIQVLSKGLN
T2 sequence (chain (part 2 of 2)): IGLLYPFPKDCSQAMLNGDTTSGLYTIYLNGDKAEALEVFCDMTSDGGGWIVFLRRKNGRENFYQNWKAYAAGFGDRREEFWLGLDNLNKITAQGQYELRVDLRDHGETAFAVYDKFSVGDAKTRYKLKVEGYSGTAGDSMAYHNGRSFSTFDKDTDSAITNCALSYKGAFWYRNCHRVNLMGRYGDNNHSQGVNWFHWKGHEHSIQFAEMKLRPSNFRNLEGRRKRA
Kind of assay: SPR, captured purified IgG4, 37 C. On the procedure: as §1

Assay [3] addresses T3, human tenascin-R rCd4-His-FBG (rat; human, UniProt P05540 207-392, limits assumed).
T3 construct: domain: domains 3 and 4; C-terminal FBG fusion; also called Hu TNR; human TNR rCd4-His-FBG; not shown: 6His tag
T3 sequence (chain (part 1 of 2)): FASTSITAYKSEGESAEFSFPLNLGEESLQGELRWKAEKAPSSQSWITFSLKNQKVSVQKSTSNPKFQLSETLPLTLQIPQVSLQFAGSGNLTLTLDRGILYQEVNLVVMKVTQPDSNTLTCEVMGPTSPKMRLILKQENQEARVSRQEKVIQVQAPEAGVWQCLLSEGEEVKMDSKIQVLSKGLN
T3 sequence (chain (part 2 of 2)): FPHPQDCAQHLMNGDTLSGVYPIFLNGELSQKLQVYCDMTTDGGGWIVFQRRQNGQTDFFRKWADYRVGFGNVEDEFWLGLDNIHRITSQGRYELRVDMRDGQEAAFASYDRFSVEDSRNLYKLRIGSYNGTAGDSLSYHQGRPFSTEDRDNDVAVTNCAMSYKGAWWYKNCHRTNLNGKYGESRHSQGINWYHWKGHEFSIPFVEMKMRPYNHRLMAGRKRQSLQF
Kind of assay: SPR off-rate screen, captured IgG4 supernatant, 25 C; SPR off-rate screen, native antigen at 100 nM, IgG4 in supernatant, 25 C. On the procedure:
The 31 scFv of interest were sub-cloned into a human IgG4 expression vector for generation of antibodies as human IgG4 with a hinge-stabilising mutation (S241P; Angal et al, 1993). […] Briefly, surface plasmon resonance (SPR) experiments were performed using a BIAcore T100 instrument and followed the protocol according to the Human antibody capture kit protocol (GE, BR-1008-39). For off-rate screening, 10,000 response units (RU) of anti-human Fc IgG (GE, BR-1008-39) was immobilised on flow-cells (FC1 and FC2) of a Series 5 CM5 dextran sensor chip (BR-1005-30) using EDC/NHS cross-linking chemistry according to the amine coupling kit protocol (GE, BR-1000-50). Culture supernatants containing expressed IgG4 were diluted 1:2 with 2×PBS-T and injected into FC2 (flowrate 5 μl/min, 60 s contact time) to enable antibody capture at 25° C. […] A fixed concentration of antigen (15 nM of human and mouse TNC rCd4-His-FBG and 100 nM of human TNR rCd4-His-FBG) was injected with a flow-path via FC 1 (reference flow cell) and FC 2 (antibody capture flow cell), with a flow rate of 30 μl/min, and the association and dissociation phases measured over 1 and 5 min time periods, respectively. […] Off rates were determined by reference cell subtraction and fitting the sensogram experimental data assuming a 1:1 interaction using BIAevaluation software (GE, BR-1005-97).

The target of assay [4] is T1, mouse tenascin-C rCd4-His-FBG. Kind of assay: SPR off-rate screen, captured IgG4 supernatant, 25 C. The method in brief:
(§2)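 SPR at 25 °C: IgG4 (S241P) from culture supernatant, diluted 1:2 in 2×PBS-T, captured on anti-human Fc surface; antigen injected at a fixed 15 nM (human and mouse TNC rCd4-His-FBG) or 100 nM (human TNR rCd4-His-FBG), 30 μl/min. Association 1 min, dissociation 5 min; off-rates from reference-subtracted 1:1 fits.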

Assay [5] has as its target T2, human tenascin-C rCd4-His-FBG. Described as above. In a few lines: as §2
Assay [6] addresses T4, human His-FBG citrullinated with PAD4 (human, UniProt P24821 1974-2201, arginines citrullinated by peptidylarginine deiminase 4; positions not stated).
T4 construct: also called His-FBG + PAD4; citrullinated His-FBG; not shown: His tag
T4 sequence: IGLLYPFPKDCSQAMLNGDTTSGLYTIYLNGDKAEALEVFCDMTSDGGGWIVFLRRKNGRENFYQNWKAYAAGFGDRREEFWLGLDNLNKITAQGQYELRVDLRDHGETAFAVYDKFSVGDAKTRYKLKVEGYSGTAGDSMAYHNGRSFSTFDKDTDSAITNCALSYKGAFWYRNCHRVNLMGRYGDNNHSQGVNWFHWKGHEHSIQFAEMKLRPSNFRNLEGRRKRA
Kind of assay: SPR, captured IgG4, 25 C, mean of 3. The method, then: (§3) Purified human His-FBG was citrullinated using either peptidylarginine deiminase 2 (PAD2; MQ-16.201-2.5, Modiquest, NL) or peptidylarginine deiminase 4 (PAD4; MQ-16.203-2.5, Modiquest, NL) according to the supplier's instructions. […] Aliquots of His-FBG in deimination buffer were incubated for 2 h at 37° C. in the absence of added PAD enzyme, for use as non-citrullinated control protein. Citrullinated and unmodified His-FBG proteins were used in SPR experiments as described below.
(§4) SPR experiments were performed on a BIAcore 3000 instrument. Anti-human IgG (GE Healthcare) was covalently coupled to the surface of a CM5 sensor chip using amino coupling chemistry. […] The flow rate was 5 μl/min in the immobilization experiments and 20 μl/min for kinetic analyses. The sensor chip surface was regenerated using 3 M MgCl₂. Data were analysed using BIAevaluation program 4.1 (GE Healthcare).
For orientation: SPR reads the build-up and loss of mass on a sensor chip optically.

Assay [7] addresses T5, human His-FBG citrullinated with PAD2 (human, UniProt P24821 1974-2201, arginines citrullinated by peptidylarginine deiminase 2; positions not stated).
T5 construct: also called His-FBG + PAD2; citrullinated His-FBG; not shown: His tag
T5 sequence: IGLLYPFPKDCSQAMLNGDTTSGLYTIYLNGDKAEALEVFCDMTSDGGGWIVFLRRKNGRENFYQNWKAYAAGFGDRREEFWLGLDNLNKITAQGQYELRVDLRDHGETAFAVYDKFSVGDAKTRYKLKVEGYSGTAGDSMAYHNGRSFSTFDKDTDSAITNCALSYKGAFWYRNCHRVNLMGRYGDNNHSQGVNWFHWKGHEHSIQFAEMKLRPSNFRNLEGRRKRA
Kind of assay: SPR, captured IgG4, 25 C, mean of 3. The method, then:
as §3, §4

For assay [8], the target named is T6, human His-FBG (human, UniProt P24821 1974-2201).
T6 construct: non-citrullinated control, incubated in deimination buffer without PAD enzyme; also called unmodified His-FBG; not shown: His tag
T6 sequence: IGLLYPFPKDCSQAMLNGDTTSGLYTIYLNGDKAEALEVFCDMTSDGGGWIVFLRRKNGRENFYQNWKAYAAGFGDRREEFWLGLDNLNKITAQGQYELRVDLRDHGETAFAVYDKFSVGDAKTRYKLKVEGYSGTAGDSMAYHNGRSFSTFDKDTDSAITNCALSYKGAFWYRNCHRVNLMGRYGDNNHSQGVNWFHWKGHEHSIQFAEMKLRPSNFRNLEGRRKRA
Kind of assay: SPR, captured IgG4, 25 C, mean of 3. The method, then:
as §3, §4

B1: B12 human IgG4 (antibody, V domains shown)
VH: QVQLVESGGGLVQPGRSLRLSCAASGFTFDDYAMHWVRQAPGKGLEWVSGISGSGGSTYYADSVKGRFTISRDNAKNSLYLQMNSLRAEDTALYYCAKDISAVPDTFDIWGQGTMVTVSS
VL: DIQMTQSPASLPTPVGDRVTITCRASQYIQGFLNWYQQKPGKAPKLLIYDASNLETGVPSRFSGSGSGTDFTLTISSLQPEDFATYYCQQSYSTPQTFGQGTKVDIKR
notes: human IgG4 with hinge S241P; also called B12 parent; B12-hIgG4
What is called Kd is the concentration at which binding is half-saturated. A higher Kd goes with weaker binding. Broadly, the koff is the rate constant with which the complex falls apart. By kon is commonly meant the rate constant with which the complex forms. As to B1, the Kd in assay [1] was determined as 4.5 nM; in assay [2], 0.24 nM; in assay [6], 0.32 nM; in assay [7], 0.32 nM; in assay [8] it was 0.17 nM. In addition, the koff worked out at 0.00138 s⁻¹ in assay [1]; 0.00112 s⁻¹ in assay [2]; 0.1 s⁻¹ in assay [3]; 0.03 s⁻¹ in assay [4]; 0.00015 s⁻¹ in assay [5]; 0.00078 s⁻¹ in assay [6]. Moreover, the koff in assay [7] amounted to 0.00096 s⁻¹; in assay [8] it was 0.00068 s⁻¹. In addition, the kon turned out to be 300000 M⁻¹ s⁻¹ in assay [1]; 4.71e+06 M⁻¹ s⁻¹ in assay [2]; 2.6e+06 M⁻¹ s⁻¹ in assay [6]; 3e+06 M⁻¹ s⁻¹ in assay [7]; 4.1e+06 M⁻¹ s⁻¹ in assay [8].
